Reference: the supplement of paper PMC12764529
± gives the half width of the 95% confidence interval.

What was measured:
[1] = folding stability dG unfold from chymotrypsin proteolysis; higher = more stable
Experimental: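 Folding stability of de novo designed mini-proteins (<80 aa, no Cys; designed by TrROS, TrMRF, ProteinMPNN and the joint model) was measured by cDNA display proteolysis with trypsin and chymotrypsin. Each protease was used at 11 concentrations in a threefold dilution series plus a no-protease condition. K50 was inferred by Bayesian fitting of sequencing counts, and dG unfold was derived against a sequence-predicted unfolded-state K50 (Tsuboyama et al. method). Sequences shown include variable-length N-terminal GS-type padding (SAGGSAGG...) inside a display construct carrying a PA tag. Rows were kept only if the AF2 dimer inter-PAE was >15, to exclude likely homo-oligomers.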

[2] = folding stability dG unfold (combined trypsin and chymotrypsin); higher = more stable
Summary of the method: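 Unfolding free energy was derived, per protease or combined, by relating Bayesian-fitted K50 values from sequencing counts to a sequence-predicted unfolded-state K50 and a shared folded-state K50. The underlying digests exposed cysteine-free mini-proteins under 80 residues, in a PA-tagged cDNA display construct, to trypsin and chymotrypsin at 11 threefold-diluted concentrations and to a no-protease condition. A filter kept only designs with AlphaFold2 dimer inter-PAE above 15.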

Sequence	folding stability dG unfold [1] [kcal/mol]	folding stability dG unfold [2] [kcal/mol]
SAGGMTVTIESVERLPGGVEVRRMVIETLDPNNPTPSTVERELVTEFTPSVDPEGRPGRLARREEVLGSAGG [r13_612_JUSTAS]	0.0887 ± 0.12	-0.237 ± 0.15
SAGGMVLEKKSPSGTTTKTVVEETPDELYVKTTTLKGKTPTTSESVIPAPPPPPLPFPSGRPEELQLLSAGG [r13_691_JUSTAS]	-0.632 ± 0.45	< -1
SAGGNITPNQAKRQAQEIADWLAQEYQQQNPDMKVKVDVEVDPPDGEIKVDGEWPNGRPMAEITIPVKSAGG [r13_247_TrROS]	-0.0106 ± 0.13	-0.618 ± 0.24
SAGGNRIPIPVKEIANNLNEEGWEIDEVEIYNPDDGEPKGTIPPGDPIEIPPNAPNMTIKPKIKPRKSAGGS [r8_243_TrROS]	0.0841 ± 0.064	-0.169 ± 0.13
SAGGPEAKIEIYKLPDGYYFISVETPDNGKPMSIPIPPGEEKKIKIEPGAPIRDISIYPVKPGDPEAFSAGG [r13_122_TrROS]	0.202 ± 0.33	-0.158 ± 0.3
SAGGPIVTSEVVETRPLPDGSTLVTVKTTKLLPLPVETTAPDGTVSPVPPGTPPVTVTETHLVVLEPSAGGS [r16_693_JUSTAS]	0.684 ± 0.055	0.0694 ± 0.22
SAGGPNMRTVTIEIPPENLKKDPDGEPYSAQDIAKHIAKHLPPDNVEIEIDKIDPDNGWFKVTIIVPSAGGS [r16_284_TrROS]	-0.0083 ± 0.2	-0.514 ± 0.44
SAGGPNPKTVEIPSPGTPEDVRARVEELAAELRPRGRPVTVTVTVGSTPRTLALAEVASVPPDATATVGSAG [r5_626_JUSTAS]	-0.933 ± 0.4	< -1
SAGGPPDKSVTVTVTDEKGNPITYPVTASKPVPVYLDDPEKKLEFTVPPDSDFTAPVPPGRVSVDLRSAGGS [r16_456_JUSTAS]	0.637 ± 0.046	0.202 ± 0.12
SAGGRIKIDIDPHPNEPGQPVMIKIKHPNGEREIPIPPNQSPEELKEAADDLAEENGFPIDDVEIHPSAGGS [r16_753_TrROS]	0.661 ± 0.059	0.154 ± 0.16
SAGGRVKVEIYNPDSGRPMEIEINPGNGTLEIRNPNNGEPVHEFPIPDIKEIEIPFSPNGILIKIEVDSAGG [r13_720_TrROS]	0.281 ± 0.043	-0.137 ± 0.33
SAGGSAAPPFKVEIETEALPGPVVTRTIKVEPGSTVTIYDPGRDEALTFPVAPGTELVFTFDGTDASAGGSA [r15_224_TrMRF]	0.849 ± 0.044	0.342 ± 0.1
SAGGSAARVVEEIPGVGLLIAKPPTSDEPEIVLSLAELEEARRRSGVPPELAALIAANPDLTLELVSAGGSA [r15_359_JUSTAS]	-0.297 ± 0.43	< -1
SAGGSADFQVEVERDPNNGYYEIEVRYPNGMPVEIEYNPKKNKIEVKVTPGFPPSMAENAAEELLDSAGGSA [r15_511_TrROS]	0.136 ± 0.058	-0.535 ± 0.49
SAGGSAEKKINSPEEIKRFAKELEKKGIKILSIDAVKFPSGPVVEYKMPVLHPENGKLSTLYIKSGSAGGSA [r15_123_TrMRF]	-0.352 ± 0.51	< -1
SAGGSAEKPPIKIEIDTETDPGNGMYEVSIPIRQKNGKPKGTIDIPFNTPQQAEDWLEDLGFDKIESAGGSA [r15_127_TrROS]	-0.865 ± 0.61	< -1
SAGGSAENLVRTTRTTEALPDGGTRTTTTTTLPGGLTVVTRPYYDPATGTTATTTTTLAPDETVTDSAGGSA [r15_917_JUSTAS]	0.447 ± 0.05	-0.0377 ± 0.16
SAGGSAEPTGPPDVEVKRSTSVEGGLTLTPVTYTSPDNTETLVITYTTDPAGNLSSTTATVPPDLVSAGGSA [r15_986_JUSTAS]	0.276 ± 0.36	-0.00361 ± 0.28
SAGGSAGEAEELAEAREAALRAALPPGTVVEVEVEVRVEREGDREEERVEVRVTVREPGTDRLLLESAGGSA [r15_915_JUSTAS]	0.13 ± 0.18	-0.173 ± 0.57
SAGGSAGGDHVQIEFPIWRMKEVERNPDNGEPRMDMEPIEITIWYPPDDPEKAKKIADEILDFISAGGSAGG [r6_280_TrROS]	0.891 ± 0.14	0.409 ± 0.18
SAGGSAGGLTITLPNGATVTINEDDLEVVEVTFEPAPPAPPVRTETRTVTETRTVTTLAPGEEASAGGSAGG [r6_585_TrROS_Hall]	0.938 ± 0.035	0.403 ± 0.11

Sequence	folding stability dG unfold [1] [kcal/mol]	folding stability dG unfold [2] [kcal/mol]
SAGGSAGGMKKYTFDSGYEFEIDGATEEEAIEKLKEEGYPLPVKKITAEEVKPEPPPPFERNLKSAGGSAGG [r6_688_JUSTAS]	0.109 ± 0.23	-0.451 ± 0.29
SAGGSAGGMTVTVEIPLPPDVPIEEVKEKVKESGYPPTKIEYDPATGKATITLSPEAKEFLEKKSAGGSAGG [r6_307_JUSTAS]	-0.425 ± 0.11	< -1
SAGGSAGGNNPPKTREIWIPPDDPDDLKDLKIDGPPGDTHHFRNPGGPYRITVTDGDPKVEPWGSAGGSAGG [r6_551_TrROS]	-0.301 ± 0.49	< -1
SAGGSAGGPMKPVEYEIPLPGRPITIEVNPPYGYIDIEWPPNGKERTVPMSPGQSAEDILKELFSAGGSAGG [r6_166_TrROS]	-1.41 ± 0.32	< -1
SAGGSAGGSAAVVVNATPDDGFTIYDPATGERLADAEVTKTNGDSLNLPHPDGRAVAVDPRKSAGGSAGGSA [r18_363_JUSTAS]	0.231 ± 0.084	-0.373 ± 0.47
SAGGSAGGSADEFVVVADLPEGGEARLLVLPLPDGSYLVAEAEAERHGDRTVLHVKVTPAESAGGSAGGSAG [r3_281_TrMRF]	0.595 ± 0.11	-0.0917 ± 0.14
SAGGSAGGSADPAFEALARAEGVPVEVTREGDTLVVTARRPDPAGREVVEEFRVPVPPELLESAGGSAGGSA [r18_27_JUSTAS]	-0.174 ± 0.14	< -1
SAGGSAGGSAGAEPLVREFEGRRIVLYREEDPGTARIEVFVGDKPYTVPLEYVPEELLLDSAGGSAGGSAGG [r11_152_TrMRF]	0.78 ± 0.085	0.325 ± 0.053
SAGGSAGGSAGAVTVTLTGGPTLEIPIPDVPPEELGTPEVVARIEAIAAARGLTIASIRLSAGGSAGGSAGG [r11_467_JUSTAS]	-0.14 ± 0.14	< -1
SAGGSAGGSAGDGDTMPFIMIHPDYLTINTWKFNPDGGLEIKSVKTIPLPPPKPSPDNKKSAGGSAGGSAGG [r11_843_TrROS]	-0.466 ± 0.45	-0.48 ± 0.21
SAGGSAGGSAGDNGPLVIEVDISPDALADAVKNNKPLNANVRIYRPDGSPGGVFDLLIPASAGGSAGGSAGG [r11_26_TrMRF]	0.217 ± 0.076	-0.126 ± 0.12
SAGGSAGGSAGDVEVTEVTDANGNLTLTVKAKPATVTPNETVTVTLTVVNDDGETKTFELSAGGSAGGSAGG [r17_293_TrROS_Hall]	-0.186 ± 0.4	-0.493 ± 0.41
SAGGSAGGSAGELPEGAKVEVREETFTRPDGYLVKRTEVRLEDTDELVTSEEVIEPGEEPSAGGSAGGSAGG [r11_338_TrROS_Hall]	0.899 ± 0.086	0.378 ± 0.06
SAGGSAGGSAGEPKIKKKYIIPLKLKDPNTDKVYIANIEVDNKEEVPKIVKKLKDKGYLSSAGGSAGGSAGG [r11_668_TrMRF]	0.351 ± 0.32	-0.0903 ± 0.4
SAGGSAGGSAGEWIPADYIRDFARNLGMPGKIDVERKEDGWFTIEIRNNGGPRKIQIPLDSAGGSAGGSAGG [r11_410_TrROS]	0.00957 ± 0.25	-0.548 ± 0.38
SAGGSAGGSAGGAADAKVRLVLRTRTFDAVPGEERELPGDSWVYEVGDKAVALELLADPVSAGGSAGGSAGG [r7_506_TrMRF]	0.895 ± 0.058	0.21 ± 0.083
SAGGSAGGSAGGAMDLPPSREAEIKLPNGETIRIFRPPDGSITLEFYDKGGKKTKIIPNSAGGSAGGSAGGS [r10_150_JUSTAS]	-0.124 ± 0.17	< -1
SAGGSAGGSAGGAVERFPGPATVTALPDGRRLVTTTDPSGRPTLTLLEVETPERVTAHPASAGGSAGGSAGG [r7_423_JUSTAS]	0.286 ± 0.038	-0.663 ± 0.2
SAGGSAGGSAGGDEIAKQIAEHFREKGLDKNREIEIRNPENGEKITVRYTPEGGDFEVEPSAGGSAGGSAGG [r7_301_TrROS]	-0.057 ± 0.17	< -1
SAGGSAGGSAGGDPDGKPPPKIEFEMETVPIPNPDGQALEIEIFRIKGNGMLFIMIEPYSAGGSAGGSAGGS [r10_1137_TrROS]	4.21 ± 0.29	4.47 ± 0.84
SAGGSAGGSAGGEPEPIPIKVKIYNPEDGKKREVDFWIPYGNIKEVLKELMPKGYKVEIESAGGSAGGSAGG [r7_230_TrROS]	-0.281 ± 0.23	-0.506 ± 0.33
